To fix the notation:
T1: FGF-5 (UniProt P12034 23-268, limits assumed, biotinylated with EZ-Link Sulfo-NHS-Biotin in the BioVeris assay only)
T1 construct: also called bFGF5 (biotinylated, BioVeris assay); FGF-5, carrier-free (R&D Systems #237-F5/CF)
T1 sequence (looked up): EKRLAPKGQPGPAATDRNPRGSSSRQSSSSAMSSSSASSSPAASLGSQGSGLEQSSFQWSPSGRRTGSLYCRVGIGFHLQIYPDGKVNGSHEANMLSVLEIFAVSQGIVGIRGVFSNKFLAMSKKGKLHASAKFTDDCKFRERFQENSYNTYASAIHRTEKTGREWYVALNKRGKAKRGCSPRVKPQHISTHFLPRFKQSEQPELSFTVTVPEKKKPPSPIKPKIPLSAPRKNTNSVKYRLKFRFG

B1: 2H9 peptide-BLA fusion (other)
chain: CHYLLTNYCTPVSEKQLAEVVANTITPLMKAQSVPGMAVAVIYQGKPHYYTFGKADIAANKPVTPQTLFELGSISKTFTGVLGGDAIARGEISLDDAVTRYWPQLTGKQWQGIRMLDLATYTAGGLPLQVPDEVTDNASLLRFYQNWQPQWKPGTTRLYANASIGLFGALAVKPSGMPYEQAMTTRVLKPLKLDHTWINVPKAEEAHYAWGYRDGKAVRVSPGMLDAQAYGVKTNVQDMANWVMANMAPENVADASLKQGIALAQSRYWRIGSMYQGLGWEMLNWPVEANTVVEGSDSKVALAPLPVAEVNPPAPPVKASWVHKTGSTGGFGSYVAFIPEKQIGIVMLANTSYPNPARVEAAYHILEALQHHHHHH
B2: 2E2 peptide-BLA fusion (other)
chain: B1 chain with H2L, Y3T, L4V, T6W, N7T, Y8T
B3: 2H10 peptide-BLA fusion (other)
chain: B1 chain with H2R, Y3I, L4H, T6A, N7H, Y8K
B4: 1A6 peptide-BLA fusion (other)
chain: B1 chain with H2E, Y3E, L4I, L5W, N7M, Y8L

Numbering of substitutions follows the chain as printed.

The target of this test is T1, FGF-5. The test can be described thus: BLA binding assay, purified peptide-BLA fusion on FGF-5-coated plate, nitrocefin.
For the molecule B1, the “Percent Bound at 0.1 nM” value was found to be 5%. On to B2, for which the “Percent Bound at 0.1 nM” value stood at 7%. Next, B3: 8%; B4: 8%.

The record behind these values is patent publication US20080269139A1 (GENENCOR INTERNATIONAL, published 2008).
